Test results: the DeepSol protein solubility set

assay: soluble on expression in E. coli; label from the status in PepcDB or PDB records

| Sequence | soluble on expression in E. coli |
| --- | --- |
| MLEGVIRESITKANAKALKKDGYLIANVYGKGIENVNGAFKLNPFIKYLKEKKHLIFPVKLGDKTFEVVVQEYQKNPVTNELIHVDLLAVTKGVKSKFKVPIKHQGTPVGLKNKGILMLSKKRISVECAPEHLPDHYLVDVAPLDVNESILVRDLEKHENVKILDHDSIAVIGVIKAK | not soluble |
| AHHHHHHGSDSIIVYVSIHHKNTEKVAKVIAEVLNARLVKPWEIKPEELLKYDLIGFGSGIYYWKHHRALFELINKLPKVEGKKAFIFSTAGLNIPFINHRKLRKVLREKGFEIVGEFSCRGWDTNGWLAEIGGLNKGHPNEKDLENARKFAENLKASI | soluble |
| MSNVVVCALYKFVSLPHFESLREPLLSMMEQAEIKGTLLLASEGINGTVAGNQAAIDALLIWLNQQNGLENITYKLSFDDEMPFYRTKVKLKKEIVTMGVEGIDPLKVVGTYVKPKDWNALISDPEVVLVDTRNDYEVQIGTFKNAINPVTETFREFPEYVKQNLDPAKHKKVAMFCTGGIRCEKSTAYLKEQGFEEVYHLEGGILKYLEEVNKAESLWEGECFVFDNRVAVDHDLKKGQYDQCNACRMPITEAEKLTPDYVQGVSCPHCIDKISEEQRKRFVERERQVNLAKSRNEAHIGSDVNHVIEARRQKKEALRKQSAEKNKAKQANALEHHHHHH | soluble |
| MYRKGAQAERELIKLLEKHGFAVVRSAGSKKVDLVAGNGKKYLCIEVKVTKKDHLYVGKRDMGRLIEFSRRFGGIPVLAVKFLNVGWRFIEVSPKIEKFVFTPSSGVSLEVLLGIQKTLEGKS | soluble |
| MMKDKHGAMNAERRGMGEQRLAERMAELERRLKEVEAENIVLKELAYQSAKRYEQLKQLAKENDELRRQLLQSPWSEKTDKMDEDERPDSWFFRTLRQENAIMPHPERNEK | not soluble |
| ELAAIQNLGGMDVLCTDKTGTITEDRVVLVQHLNPLGDLSDEVLNLAYLNSSYQTGWKNLMDIAVINFYEEHQWKTPFKNVTKIDEIPFDFSRRRLTVVVNADDHQLMITKGAVEEMEEVCTHAQINGEIVPLSTAVREELRRVNVQMNKQGMRVLAVAVKKDVHKEAVYSVEDEKEMTLIGFMGFLDP | not soluble |
| AHHHHHHGSDGLTAQEFLTLVKLERGMYLSKEEKDDVERIKEKNKRVLELIKDHHKDFDVYLTGHIDFDNLLTMYEIYKELKKRGVNVYYPGLFWANWREKGEIEYKIKNNAKILLVITQTISFGTSVDVGFFIHRKINEEEAKIVFCYTGPSYEFESLKTHPASIYIDYFTRDIEDAIEKTLEFLSL | soluble |
| ADEFGNGDALDLPVGKDAVNSLIRENSHIFSDTQCKVCSAVLISESQKLAHYQSRKHANKVRRYMAINQGEDSVPAKKFKAAPAEISDGEDRSKCCPVCNMTFSSPVVAESHYIGKTHIKNLRLREQ | soluble |
| MEARPRVAGIVLAAGKSTRMGRPKQLLPFRGRTVLECVVDNALASRLHRVVVVLGHEAEAVMPLLGHRCVTTVVNPLYGEGQSSSLKAGLGAMTEETDAALFLLGDQPLVTADTINLLIAAFADFPSPIVIPTFEGHRGNPVLFSRETFPRIEALSGDRGARGLFREYGDDIRSIDVRTPAILFDLDTEEDYLRLLREFPAVLEHHHHHH | not soluble |
| MSEDRSSNGQKSWLGKLTQAFVHEPKNRQELLELLREAHQNKLLDSEALAIVEGAIQVADLQVRDIMVPRSQMISIKATQTPREFLPAVIDAAHSRYPVIGESHDDVLGVLLAKDLLPLILKADGDSDDVKKLLRPATFVPESKRLNVLLREFRANHNHMAIVIDEYGGVAGLVTIEDVLEQIVGDIEDEHDVEEDSYIKPLPSGDFLVKALTPVENFNEFFDSAFSDDEFDTVGGLVMNAFGHLPKRNEITEIGAYRFRILSADSRRIHLLRVTPISRP | not soluble |
| MIGYEFFVSEKLENCKYKYIKAINDYIKQEKSHIIGIDLGKYHYLTASNIDRSFVFVDKHNTLFHLFRKYERRIANKQYDNSEAYSKLKTGLKSHINQVVNEMLEQTSNRFQTVFALDDHGSSHLSFPSLVFDLTYFAIKQRKNESDEILIVDESFTSIECPICHDRNQYNRTNKNKFKCTKCGFIHQNNDIVAASNIAKKGQLLNSLEHHHHHH | not soluble |
| MSLQKQRFCLDTTAITDSDVRKSLGVSNISESAEKIMDIIAQARVQLDISCHIPYDTVYKELVGFLTREGCAPETLIKVDTWLVKKTPNRYEIKIPAEIFYEYIKDLRERINKGMRISENAMYETALEAYILSKPDEKDREDVLNEVLSKTVNSFRVKYRNALRGGTLDSAPDLDVLLLAKELDAAVVANDEGIEKWAQRLGLRFVNARDFPFILQEYLDLWDKKEGHHHHHH | soluble |
| MAHHHHHHMARRPSRCYRFCKNKPYPKSRFCRGVPDPKIRNFDIGRRRATVDEFPVCIHVVSRELEQIASEALEAARIQANKYMVKRANKDVFHMRTRAHPFHVLRINKMLSCAGADRLQTGMRGAFGKPNGVCARVRIGQILLSMRTKEAYVPQAFEALRRAKMKFPGRQIIVMSKYWGFTNILRTEYEALRDAGKLEQRGTHCKLIAPKGKITMRNVMA | not soluble |
| MEECAVSGGFDVSPQELRTFAGKLDVHRSTAEEIAGLVTEADVPERSWGVVGLVVKSECTRMLGDLNELFTALQEGLRSGSEKFTGAAQDYTDQEEAVKELLSGLQVRLDERQGGR | not soluble |
| MGSDKIHHHHHHMARYSKKMKLLINTPSLKFLGGGVANHYIGLRTFWTENVKYNVVGRRGGKSGSGKYWLPWDIFKFIFRLLTFRPNIILLNPSLGDKALKRDFIYLNICRFFRKKTSVFIHGFNFEYAKNADWKWISTNLNKALCIFVLSQEFKNELIRRGVKSDIHLTSTKVPDYFISGFDLSMRQGKAKNIMYSGRIEKAKGVYETVDTFSILKSQYKDLTLTFVGDGSELPKLKQYVENKKIKDVRFTGRLCGEDFKKEYINADMYLFLSYTEGMPTVVLEAMIFGLPIFTRKVGGLIDFFENGKMGYISSSLDPVVFAEAMKPYIESSAKMKSVSLYNSEYARTHFIASVVARKFENTLNYEYFKNQEHREH | not soluble |
| MSLSKQIVILGAGYGGLLAALNVRKYYSKSEAQVTVINQYPTHQIITELHRLAAGNVSEQAVAMPLTKLFKGKDIDLKIATVESFSVDSKEIKLAGGTTLSYDALVVALGSKTAYFGIPGLEENSMVLKSAADANKIYKHVEDRIREYAKTKNEADATIVIGGGGLTGVELVGELADIMPKLAKSHGVNPKEVKLLLVEAGPKILPVLPDHLIERATTSLEARGVTFLTGLPVTNVAGNEIDLKDGQKLVANTFVWTGGVQGNPLIGESGLEVNRGRATVDAYLQSTSHKDVFVAGDSAVVFAPDGRPYPPTAQIAWQMGELIGYNLYAALEGKAFEEFAPVNSGTLASLGRKDAVATIGASNTPLKGLPASLMKEASNVRYLSHIKGLFSLAYEGHHHHHH | soluble |
| MGSDKIHHHHHHMLTSDPSESTAHLQRTISNLSARNAKLAELLKASRDKLSILQDQLEDLAAPPSTYGTFLEFSGGRETAEVFTAGRHMRLRISPDVEKAELVPGVQVRLGEASQVVEVCDISTTGQLATLVELLADNRGLICDHTGEERVVKLAAALTEGVDKLPKAGDTLLVDPRAGYAFEVIPKTEVSTLALEEVPDVTYADIGGLNSQIELIHDAVELPFTQPDLYRAYDLKPPKGVLLYGPPGCGKTLIAKAVANSLAQRIGAGNRSYFINVKGPELLNKYVGETERRIRLIFERARELAEEGRPVIVFFDEMESIFRTRGSGVSSDMETTVVPQLLTELDGVESLSNVIIIGATNREELIDPAILRPGRLDVKIRVERPDKQAARDVFARHLKQNIPTAEPIDSLINNAVDHLYADNPYVELSLIDGSTEILHYRDFVSGAMIANIVDRAKKCAIKDHIAGRHSGVASEHLIAAINAENHESEDLPNTSNPDDWSRIIGRHGLRVAHARVLGGQR | not soluble |
| MGFHLRNSLALPPDTPAVKVQSAVQYSELAKLLRRGLKASGATLADEDAKTGFAQVQVLSERWGDLPIAIDSQGRAQEYSLRYAAIFTVTTANGAVLVPQQVIELSRDYVSPPVDATGTATEREILADELRKDMSASILRRIDSVVRARLKHGESLESTPTAPLPPAPVQPTTLPESSVPAALPPAPTSGNLEHHHHHH | not soluble |
